Experimental data taken from PMC10746786 (2023).

B1: FLAG-tagged EIF4G2 WT [human] / EIF4A2 [human (endogenous in HEK293T)] (parent complex)
chain 1: MESAIAEGGASRFSASSGGGGSRGAPQHYPKTAGNSEFLGKTPGQNAQKWIPARSTRRDDNSAANNSANEKERHDAIFRKVRGILNKLTPEKFDKLCLELLNVGVESKLILKGVILLIVDKALEEPKYSSLYAQLCLRLAEDAPNFDGPAAEGQPGQKQSTTFRRLLISKLQDEFENRTRNVDVYDKRENPLLPEEEEQRAIAKIKMLGNIKFIGELGKLDLIHESILHKCIKTLLEKKKRVQLKDMGEDLECLCQIMRTVGPRLDHERAKSLMDQYFARMCSLMLSKELPARIRFLLQDTVELREHHWVPRKAFLDNGPKTINQIRQDAVKDLGVFIPAPMAQGMRSDFFLEGPFMPPRMKMDRDPLGGLADMFGQMPGSGIGTGPGVIQDRFSPTMGRHRSNQLFNGHGGHIMPPTQSQFGEMGGKFMKSQGLSQLYHNQSQGLLSQLQGQSKDMPPRFSKKGQLNADEISLRPAQSFLMNKNQVPKLQPQITMIPPSAQPPRTQTPPLGQTPQLGLKTNPPLIQEKPAKTSKKPPPSKEELLKLTETVVTEYLNSGNANEAVNGVREMRAPKHFLPEMLSKVIILSLDRSDEDKEKASSLISLLKQEGIATSDNFMQAFLNVLDQCPKLEVDIPLVKSYLAQFAARAIISELVSISELAQPLESGTHFPLFLLCLQQLAKLQDREWLTELFQQSKVNMQKMLPEIDQNKDRMLEILEGKGLSFLFPLLKLEKELLKQIKLDPSPQTIYKWIKDNISPKLHVDKGFVNILMTSFLQYISSEVNPPSDETDSSSAPSKEQLEQEKQLLLSFKPVMQKFLHDHVDLQVSALYALQVHCYNSNFPKGMLLRFFVHFYDMEIIEEEAFLAWKEDITQEFPGKGKALFQVNQWLTWLETAEEEESEEEAD
chain 2: MSGGSADYNREHGGPEGMDPDGVIESNWNEIVDNFDDMNLKESLLRGIYAYGFEKPSAIQQRAIIPCIKGYDVIAQAQSGTGKTATFAISILQQLEIEFKETQALVLAPTRELAQQIQKVILALGDYMGATCHACIGGTNVRNEMQKLQAEAPHIVVGTPGRVFDMLNRRYLSPKWIKMFVLDEADEMLSRGFKDQIYEIFQKLNTSIQVVLLSATMPTDVLEVTKKFMRDPIRILVKKEELTLEGIKQFYINVEREEWKLDTLCDLYETLTITQAVIFLNTRRKVDWLTEKMHARDFTVSALHGDMDQKERDVIMREFRSGSSRVLITTDLLARGIDVQQVSLVINYDLPTNRENYIHRIGRGGRFGRKGVAINFVTEEDKRILRDIETFYNTTVEEMPMNVADLI
B2: FLAG-tagged EIF4G2 WT [human] / PRRC2C [human (endogenous in HEK293T)] (parent complex)
chain 1: B1 chain 1
chain 2: MSEKSGQSTKAKDGKKYATLSLFNTYKGKSLETQKTTARHGLQSLGKVGISRRMPPPANLPSLKAENKGNDPNVNIVPKDGTGWASKQEQHEEEKTPEVPPAQPKPGVAAPPEVAPAPKSWASNKQGGQGDGIQVNSQFQQEFPSLQAAGDQEKKEKETNDDNYGPGPSLRPPNVACWRDGGKAAGSPSSSDQDEKLPGQDESTAGTSEQNDILKVVEKRIACGPPQAKLNGQQAALASQYRAMMPPYMFQQYPRMTYPPLHGPMRFPPSLSETNKGLRGRGPPPSWASEPERPSILSASELKELDKFDNLDAEADEGWAGAQMEVDYTEQLNFSDDDEQGSNSPKENNSEDQGSKASENNENKKETDEVSNTKSSSQIPAQPSVAKVPYGKGPSFNQERGTSSHLPPPPKLLAQQHPPPDRQAVPGRPGPFPSKQQVADEDEIWKQRRRQQSEISAAVERARKRREEEERRMEEQRKAACAEKLKRLDEKLGILEKQPSPEEIREREREKEREREKELEKEQEQEREKEREKDRERQQEKEKELEKEQEKQREMEKERKQEKEKELERQKEKEKELQKMKEQEKECELEKEREKLEEKIEPREPNLEPMVEKQESENSCNKEEEPVFTRQDSNRSEKEATPVVHETEPESGSQPRPAVLSGYFKQFQKSLPPRFQRQQEQMKQQQWQQQQQQGVLPQTVPSQPSSSTVPPPPHRPLYQPMQPHPQHLASMGFDPRWLMMQSYMDPRMMSGRPAMDIPPIHPGMIPPKPLMRRDQMEGSPNSSESFEHIARSARDHAISLSEPRMLWGSDPYPHAEPQQATTPKATEEPEDVRSEAALDQEQITAAYSVEHNQLEAHPKADFIRESSEAQVQKFLSRSVEDVRPHHTDANNQSACFEAPDQKTLSAPQEERISAVESQPSRKRSVSHGSNHTQKPDEQRSEPSAGIPKVTSRCIDSKEPIERPEEKPKKEGFIRSSEGPKPEKVYKSKSETRWGPRPSSNRREEVNDRPVRRSGPIKKPVLRDMKEEREQRKEKEGEKAEKVTEKVVVKPEKTEKKDLPPPPPPPQPPAPIQPQSVPPPIQPEAEKFPSTETATLAQKPSQDTEKPLEPVSTVQVEPAVKTVNQQTMAAPVVKEEKQPEKVISKDLVIERPRPDSRPAVKKESTLPPRTYWKEARERDWFPDQGYRGRGRGEYYSRGRSYRGSYGGRGRGGRGHTRDYPQYRDNKPRAEHIPSGPLRQREESETRSESSDFEVVPKRRRQRGSETDTDSEIHESASDKDSLSKGKLPKREERPENKKPVKPHSSFKPDNHVRIDNRLLEKPYVRDDDKAKPGFLPKGEPTRRGRGGTFRRGGRDPGGRPSRPSTLRRPAYRDNQWNPRQSEVPKPEDGEPPRRHEQFIPIAADKRPPKFERKFDPARERPRRQRPTRPPRQDKPPRFRRLREREAASKSNEVVAVPTNGTVNNVAQEPVNTLGDISGNKTPDLSNQNSSDQANEEWETASESSDFNERRERDEKKNADLNAQTVVKVGENVLPPKREIAKRSFSSQRPVDRQNRRGNNGPPKSGRNFSGPRNERRSGPPSKSGKRGPFDDQPAGTTGVDLINGSSAHHQEGVPNGTGQKNSKDSTGKKREDPKPGPKKPKEKVDALSQFDLNNYASVVIIDDHPEVTVIEDPQSNLNDDGFTEVVSKKQQKRLQDEERRKKEEQVIQVWNKKNANEKGRSQTSKLPPRFAKKQATGIQQAQSSASVPPLASAPLPPSTSASVPASTSAPLPATLTPVPASTSAPVPASTLAPVLASTSAPVPASPLAPVSASASVSASVPASTSAAAITSSSAPASAPAPTPILASVSTPASVTILASASIPILASALASTSAPTPAPAASSPAAPVITAPTIPASAPTASVPLAPASASAPAPAPTPVSAPNPAPPAPAQTQAQTHKPVQNPLQTTSQSSKQPPPSIRLPSAQTPNGTDYVASGKSIQTPQSHGTLTAELWDNKVAPPAVLNDISKKLGPISPPQPPSVSAWNKPLTSFGSAPSSEGAKNGQESGLEIGTDTIQFGAPASNGNENEVVPVLSEKSADKIPEPKEQRQKQPRAGPIKAQKLPDLSPVENKEHKPGPIGKERSLKNRKVKDAQQVEPEGQEKPSPATVRSTDPVTTKETKAVSEMSTEIGTMISVSSAEYGTNAKESVTDYTTPSSSLPNTVATNNTKMEDTLVNNVPLPNTLPLPKRETIQQSSSLTSVPPTTFSLTFKMESARKAWENSPNVREKGSPVTSTAPPIATGVSSSASGPSTANYNSFSSASMPQIPVASVTPTASLSGAGTYTTSSLSTKSTTTSDPPNICKVKPQQLQTSSLPSASHFSQLSCMPSLIAQQQQNPQVYVSQSAAAQIPAFYMDTSHLFNTQHARLAPPSLAQQQGFQPGLSQPTSVQQIPIPIYAPLQGQHQAQLSLGAGPAVSQAQELFSSSLQPYRSQPAFMQSSLSQPSVVLSGTAIHNFPTVQHQELAKAQSGLAFQQTSNTQPIPILYEHQLGQASGLGGSQLIDTHLLQARANLTQASNLYSGQVQQPGQTNFYNTAQSPSALQQVTVPLPASQLSLPNFGSTGQPLIALPQTLQPPLQHTTPQAQAQSLSRPAQVSQPFRGLIPAGTQHSMIATTGKMSEMELKAFGSGIDIKPGTPPIAGRSTTPTSSPFRATSTSPNSQSSKMNSIVYQKQFQSAPATVRMTQPFPTQFAPQILSQPNLVPPLVRAPHTNTFPAPVQRPPMALASQMPPPLTTGLMSHARLPHVARGPCGSLSGVRGNQAQAALKAEQDMKAKQRAEVLQSTQRFFSEQQQSKQIGGGKAQKVDSDSSKPPETLTDPPGVCQEKVEEKPPPAPSIATKPVRTGPIKPQAIKTEETKS
B3: FLAG-tagged EIF4G2 WT [human] / HADHB [human (endogenous in HEK293T)] (parent complex)
chain 1: B1 chain 1
chain 2: AAPAVQTKTKKTLAKPNIRNVVVVDGVRTPFLLSGTSYKDLMPHDLARAALTGLLHRTSVPKEVVDYIIFGTVIQEVKTSNVAREAALGAGFSDKTPAHTVTMACISANQAMTTGVGLIASGQCDVIVAGGVELMSDVPIRHSRKMRKLMLDLNKAKSMGQRLSLISKFRFNFLAPELPAVSEFSTSETMGHSADRLAAAFAVSRLEQDEYALRSHSLAKKAQDEGLLSDVVPFKVPGKDTVTKDNGIRPSSLEQMAKLKPAFIKPYGTVTAANSSFLTDGASAMLIMAEEKALAMGYKPKAYLRDFMYVSQDPKDQLLLGPTYATPKVLEKAGLTMNDIDAFEFHEAFSGQILANFKAMDSDWFAENYMGRKTKVGLPPLEKFNNWGGSLSLGHPFGATGCRLVMAAANRLRKEGGQYGLVAACAAGGQGHAMIVEAYPK

Variants of: B1
Assay: co-immunoprecipitation followed by mass spectrometry; FLAG-tagged EIF4G2 transfected into HEK293T cells; corrected for EIF4G2 levels in IP; read off a plot

Variant | ratio to parent
chain 1 R178Q | ~5.6

Variants of: B2
Assay: as above

Variant | ratio to parent
chain 1 N785K | ~1.6
chain 1 R165C | ~2.4

Variants of: B3
Assay: as above

Variant | ratio to parent
chain 1 R178Q | ~4.9
